Results published in article PMC5383521 (Journal of molecular recognition : JMR, 2016).
Substitutions are numbered along the chain they refer to. Numbers in names are those of the source.

B1: murine monoclonal antibody LA-2, wild type (antibody, V domains shown)
VH: QIQLVQSGPELKKPGETVKISCKASGYTFTDYSMYWVKQAPGKGLKRMGWINTETGEPTYADDFKGRFALSLDTSASTAYLHISNLKNEDTATYFCARGLDSWGQGTSVTVSS
VL: DIQMTQSPSSLSATLGGKVTITCKASQDINKYIAWYQHKPGKGPRLLIHYTSTLQPGNPSRFSGSGSGRDYSFSISNLEAEDIAIYYCLQYDNLQRTFGGGTKVEIK
B2: LA-2 H49A-Light (antibody, V domains shown)
VH: B1 VH
VL: B1 VL with H49A

How the values were obtained:
[1] = molecular target: murine monoclonal antibody LA-2, wild type (mouse); assay: SPR
[2] = molecular target: Outer surface protein A (OspA) from Borrelia burgdorferi B31, wild type (Borrelia burgdorferi B31, UniProt P0CL66); assay: SPR

Row | Molecule | fold increase of affinity against wild type OspA [1] | binding result [2]
1 | OspA (B. burgdorferi B31) A215K (from UniProt P0CL66 17-273) (natural protein) | 7.5 fold | 
2 | B1 |  | binds
3 | B2 |  | no binding
